Test results as given in article PMC10214526 (2023).
Where no end group is shown, it is not given here.

target: GABARAP (UniProt O95166 2-116); test: FP
Sequence (O95166 2-116): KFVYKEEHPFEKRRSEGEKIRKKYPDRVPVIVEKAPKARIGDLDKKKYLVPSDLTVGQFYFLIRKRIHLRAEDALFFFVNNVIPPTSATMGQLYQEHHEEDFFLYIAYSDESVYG

| Binder | Kd [µM] |
| --- | --- |
| LEAIIEEDDGDGGWVDTYHCGGGK (also: fluorescein, position not given here, cyclized, places not given here) [fluorescein-modified cyclized LIR^ATG3 peptide] | 0.15 |
| GDGGWVDTY (also: fluorescein, position not given here) [fluorescein-modified truncated (103–111) LIR^ATG3 peptide] | > 10 |
| LEAIIEEDDGDGGWVDTYH (also: fluorescein, position not given here) [fluorescein-modified linear LIR^ATG3 peptide] | 1.2 |

target: LC3A (UniProt Q9H492 1-121); test: FP

| Binder | Kd [µM] |
| --- | --- |
| LEAIIEEDDGDGGWVDTYHCGGGK (also: fluorescein, position not given here, cyclized, places not given here) [fluorescein-modified cyclized LIR^ATG3 peptide] | 0.41 |
| GDGGWVDTY (also: fluorescein, position not given here) [fluorescein-modified truncated (103–111) LIR^ATG3 peptide] | > 15 |
| LEAIIEEDDGDGGWVDTYH (also: fluorescein, position not given here) [fluorescein-modified linear LIR^ATG3 peptide] | 2.6 |
